Target: PSD-95 PDZ1 mutant (ED6N) (UniProt P78352)
Test: ITC

Sequence of PSD-95 PDZ1 mutant (ED6N) (P78352 60-151, change not shown): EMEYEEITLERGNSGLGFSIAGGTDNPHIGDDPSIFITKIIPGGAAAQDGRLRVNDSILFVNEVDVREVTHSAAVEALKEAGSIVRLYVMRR

fold weakening of binding against PDZ1 WT: 8 fold
B1: Stg_CT WT (domain or fragment)
chain: DRHKQLRATARATDYLQASAITRIPSYRYRYQRRSRSSSRSTEPSHSRDASPVGVKGFNTLPSTEISMYTLSRDPLKAATTPTATYNSDRDNSFLQVHNCIQKDSKDSLHANTANRRTTPV
